Data reported in paper PMC2908078, “The YEATS family member GAS41 interacts with the general transcription factor TFIIF” (BMC Molecular Biology, 2010).

Biological target: T1, His-GAS41 (human, UniProt O95619 1-227)
T1 construct: source: E. coli M15 [pRep4], pQE30, purified (Ni-NTA)
Test: pull-down; GST-RAP30 full length or fragments d1-d3 on glutathione-sepharose 4B as bait, purified His-GAS41 (10-20 ug) as prey, over night at 4°C; immunoblot
Conditions: both partners purified

T1 sequence (O95619 whole entry): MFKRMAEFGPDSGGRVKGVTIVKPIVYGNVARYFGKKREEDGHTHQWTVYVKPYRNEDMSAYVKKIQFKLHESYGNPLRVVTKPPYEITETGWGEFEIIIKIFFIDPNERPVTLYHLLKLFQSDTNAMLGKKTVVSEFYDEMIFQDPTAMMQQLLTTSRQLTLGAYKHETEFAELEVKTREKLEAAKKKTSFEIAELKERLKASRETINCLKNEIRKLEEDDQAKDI

Row | binding result | Binder
1 | binds | GST-RAP30 d2 (RAP74 binding domain and polymerase binding domain, aa1-169) (domain or fragment, human, UniProt P13984 1-169, looked up, source: E. coli BL21 (DE3), pGEX-4T1) MAERGELDLTGAKQNTGVWLVKVPKYLSQQWAKASGRGEVGKLRIAKTQGRTEVSFTLNEDLANIHDIGGKPASVSAPREHPFVLQSVGGQTLTVFTESSSDKLSLEGIVVQRAECRPAASENYMRLKRLQIEESSKPVRLSQQLDKVVTTNYKPVANHQYNIEYERKK
2 | binds | GST-RAP30 d3 (DNA binding site, aa169-249) (domain or fragment, human, UniProt P13984 169-249, looked up, source: E. coli BL21 (DE3), pGEX-4T1) KKEDGKRARADKQHVLDMLFSAFEKHQYYNLKDLVDITKQPVVYLKEILKEIGVQNVKGIHKNTWELKPEYRHYQGEEKSD
